Molecular target: CD19 on CD19-positive human tumor cells (Raji, Raji-Luc, NALM6, Reh) (human) (UniProt P15391)
Assay: cell-based or functional assay

Sequence of CD19 on CD19-positive human tumor cells (Raji, Raji-Luc, NALM6, Reh) (human) (P15391 20-556): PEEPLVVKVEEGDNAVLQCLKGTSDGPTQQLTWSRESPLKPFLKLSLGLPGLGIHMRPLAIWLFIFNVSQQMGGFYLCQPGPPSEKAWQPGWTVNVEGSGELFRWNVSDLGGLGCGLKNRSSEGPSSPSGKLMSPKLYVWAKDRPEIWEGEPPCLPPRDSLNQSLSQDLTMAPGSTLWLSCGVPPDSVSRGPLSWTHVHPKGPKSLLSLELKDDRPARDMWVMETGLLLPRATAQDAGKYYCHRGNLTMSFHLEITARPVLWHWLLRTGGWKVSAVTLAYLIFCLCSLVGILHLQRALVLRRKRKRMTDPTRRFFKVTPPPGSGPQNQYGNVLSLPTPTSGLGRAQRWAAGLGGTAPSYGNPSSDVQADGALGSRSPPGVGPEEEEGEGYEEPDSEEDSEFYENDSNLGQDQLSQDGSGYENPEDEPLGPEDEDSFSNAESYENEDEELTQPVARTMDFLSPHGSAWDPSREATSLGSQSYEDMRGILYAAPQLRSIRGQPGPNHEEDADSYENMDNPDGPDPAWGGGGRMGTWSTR

Substance “bispecific antibody blinatumomab (Blincyto, Amgen)” has an EC50 of activation of NFAT-RE luciferase reporter Jurkat T cells in the presence of Raji target cells of 2.71 nM, an EC50 to mediate CIK to kill different tumor cells (NALM6) of 0.0773 nM and an EC50 to mediate CIK to kill different tumor cells (Reh) of 0.0119 nM. For the same substance, the EC50 to mediate CIK to kill tumor cells (Raji-LUC) was 0.000595 nM, the EC50 to mediate CIK to kill tumor cells (Raji-LUC, second row without label) was 0.00565 nM and the EC50 to mediate PBMCs to kill tumor cells (Raji-LUC) was 0.00545 nM. For the same substance, the EC50 to mediate PBMCs to kill tumor cells (Raji-LUC, second row without label) was 0.0212 nM and the EC50 to mediate PBMCs to kill tumor cells (Raji-LUC, third row without label) was 0.0226 nM.
